Source: the supplement of paper PMC9170038

System: K4 kissing-loop RNA reporter
Test: apparent KD of K4 kissing-loop reporter; higher = weaker reporter binding
Settings: Eterna round: R107; input ligand: none
Protocol: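 RNA-MaP round R107: designed RNA switches with theophylline, tryptophan, arginine or FMN aptamers are transcribed on-chip within common flanks. They are titrated with a labelled K4 kissing-loop RNA reporter in RNA-MaP buffer (100 mM Tris pH 7.5, 80 mM KCl, 4 mM MgCl2), without ligand or with the indicated ligand. Median apparent KD per design.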
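Also: bound reporter read as fluorescence of individual clusters on recovered sequencing chips by microscopy, with normalized cluster intensities fitted with a binding model.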

Sequence	apparent KD of K4 kissing-loop reporter [nM]
UCGGACGCGCACCUAGGCCAAUCCACUGCGAAGGAUAUGCGCGCCAGCAGAAGGUCGUUUUAUGAGUGAUGUUUAGAAACAGCGU [theeternabot_exclusion_KL_FMN_A_25]	305
GGGAUGUAGUGAUGUUAUAUUAGAUGUAGACGAGGACCGGUACGGCCGCCACUCGUGAUGGCUGCUAGCACGUUUCGAUGUUUGC [ExTryptoA.Cr]	428
GUUACGCAUGGAAGGAGCGCACUCCGAUUGGACGACACAGUGAUGUUGUGGUUCGUUCGAAUGCAGGUAGGUCGCCAUGUGUAAC [Ex Arginine B K4 19]	150
CUCAAACCGUGGGCAUUUCGCAAAGUAGAUACCAGUCGCAACGGUGACCCUUGGCAGCUAGUAAAGUGAUGUUUUAUCGGCACCA [theeternabot_exclusion_KL_Theo_A_35]	78
AGCAUUAUCAGAAGGAGCGUGUAUAAUUCAAGAGAAUUGUUUUCGAGUGAUGUUCGUAAUACACAGGUAGGUCGCUGAUAUAGCA [JR_ExcArginiB_Sub001]	257
AAGGCCAGUGAUGUUGGCUUAACCUUCGAUACCAGAACCGAUCGUUUCCCUUGGCAGCGAACACAAUACCUCACAGCGUUAAGUA [theeternabot_sameState_KL_Theo_A_8]	125
GUACGCUGCUGAGUGAUGUUCAGCAAUCGCUAGGAUAUCGCUUUUGCGAGAAGGAGCGCAAUGAGGAAACUCGUUGUUAGUGUAC [FMN A 28]	255
UGGGUGUAGUGAUGUUAUAUAGAGAGUGAUACCAGUUUAGAGAGGAACCCUUGGCAGCAUAGAAGAGUAUCAUUGGAGGAGGAGG [ExTheophyl.Aw]	696
GCAGACCGCAGUGAUGUUGCGAAAUCGGAAGGAGCGCGUGAAAACGCAGGUAGGUCGCCGACACAGGGAUUAUAACCCUGUUUGC [Arginine A K4 16]	207
GAGCCAGAGGUUGCUGCGGGUUCCAGAGAUACCAGCCGUAUUGAAGGCCCUUGGCAGCUCGAGUGAUGUUCGAGCCGCCUCUGAC [Isquleorve]	97.2
UUCUUGAUGGAAACAUCGAGAAUUACUGAUACCAGUAUCGAUAGAUACCCUUGGCAGCAGAAUCAGUAAUAACGAGUGAUGUUCG [Ex Theophylline A K4 4]	304
AAGAGCUAGGCGGCCGCCACUAGUUGUGAACACGUACAAGCCAGUGAUGUUGGUAUGAUGGACGGUAGGACCGGGCCUAGCUGAA [Exclusion - Tryptophan B (Freestyle 14)]	276
CAUUCAGUGAUGUUGGAAGGCGAGCGGGAUACCAGCGGAGACUCACGCCCUUGGCAGCCCACAUAUCCCAGGUAGAUAAUAGUUC [Same State - Theophylline A (Freestyle 6)]	203
AGACCUCAGUGAUGUUGAGGUAACACUGAUACCAGCGACUUAAUUCGCCCUUGGCAGCAGUCCACCGAGGUAUCUGAUUAGGUCA [#24 K4 Theophylline A Exclusion]	179
AGAACUGUCUGGGAUACCAGCCGAGGAGUGAUGUUCCGGCUCGACGAAACGUCGAGCUACGGCCCUUGGCAGCUCAGACAGUUCA [#22 K4 Theophylline B Same State]	1170
GCCAGAGCGCGAAGGAGCGCCGUGACAGGUUGCUGCCGUGGGCAGUGAUGUUGCUCAAUCUGGCAGGUAGGUCGCGUGCUCUGGC	273
UCCUUUUUUGCCAGUGAUGUUGGACAGGAAGGAGCGGGCAUAAGCCCAGGUAGGUCGCCUGUCAACUUUCUUAUAGCCCUAAGGU [Edveza]	236
UAUUAAUUGACGGCCGCCACUAUUGUGAUUUAUUUGUUUGAGUGAUGUUUUGAUGUUUGAUUUUGUAGGACCGGGUUAUGUGUUA [zwzcmullin]	954
AGAUUCGACACGGCCGCCACUCGUGGUGGAUUAUCCUAUGUAAGACAUGAGUGAUGUUCAUGUACGAGGACCGGGUGUUGAGUCU [KL-XTryp-B5 #analogue]	488
GUUAUGGACCUUUUGAUCGUUCGUAGCGAUACCAGACAAUGGGCAGUCCCUUGGCAGCGCUAAUUGAGUGAUGUUCAAACGUGCA [theeternabot_exclusion_KL_Theo_A_46]	680
AGAAGGAGACUUGCAACGACUCCUUCAGACUAGGAUAUCAGGAAACUGAGAAGGAGUCUACUUGCAGUGAUGUUGCAAGAAUAAU [[F]''-[K]'-[F]'-[F1]-[F2]-[K1]-[K2]_Design3]	130

Same assay, conditions: Eterna round: R107; input ligand: theophylline 20 uM

Sequence	apparent KD of K4 kissing-loop reporter [nM]
UCCGGUCGGUGAGCCAGUGAUGUUGGUCAGAAGGAUAUCUGGCAACAGAGAAGGUCUGCAUCAGCCUAGAUAUCCUGGCGACCGG	84.2
CAUACGCAUGGAGGAUAUGAGAUUACUCAUGUCAUUUAAUAUUCUCAGUGAUGUUGAGAUUUUGGCUCAGAAGGCCAUGUGUAUG [Ex FMN B 18]	599
CUCGUGGGUUUGAGAGGGCUUGUGGGAAGUGAGGAUAUUUAGGGAGAAAGAAGGCACUAUAGAAUAUAGUGAUGUUAUAUAUGGG [SSFMNA.Q]	69.3
CCGUAGAACGGAAGGAGCGCCAUAGAUAAGAAUUCCGUAAGUGAGUGAUGUUCACACAAAUGGCAGGUAGGUCGCCGUUAUUUAG [Arg B Ex t5]	202
UAACUGCAGUGAUGUUGCAGAUGUCCUGACUAGGAUAUCAGGAAACUGAGAAGGAGUCCCUUCUACACUGCAGAGAAGGAGGACA [[K1]-[K2]-[F1]'-[F1]-[F2]-[F2]'-[K]'-[F]''_Design1]	125
UCUGUUGUAUAUGAUACCAGCAGUGAGAGACGAGAAGUAUAGUGAUGUUAUAUGAGAGAAUGCCCUUGGCAGCGUGUGCGUGUGG [SSTheophylB.aB]	118
ACAUCGGUUGAGAGUGAUGUUCCUUGUGUUCGAGGACCGGUACGGCCGCCACUCGGGUAGAAAAUAACAGAUGUGUUUCAUUUUU [BDazzled - #17 SS Tryptophan A]	277
GGAUGGUAGGCGGCCGCCACUAAAACAGAACACAUACAAGCCAGUGAUGUUGGUAUGAUGGUGUAUAGGACCGGGCCUAGAUAGA [Exclusion - Tryptophan B (Freestyle 5)]	186
CUUAUGGAGUGUCGUACCGGACACUGGGAAGGAGCGCAAUUCUUUGCAGGUAGGUCGCCCAGUGAUGUUGGGUGGCGCUGUCGAA [Xebeor]	266
ACGUCUCGUAAACUCGUGGUUUCGAUCGAUACCAGUAGCGAGAGUUACCCUUGGCAGCGACAUGAGUGAUGUUCAUGUACGAAGA [KL-XTheoA2]	89.8
AAGUACACGAUAGUGUACACCUAGUGAUGUUAGGAUAUGCAGAUAUGCAGAAGGAACGAGUCAUCUGACAAUAGUCGGAUGACAA [FmnAX 8 #OpenEnded #K4Early]	103
ACUGUACCGGGAAGGAGCGUGAAUGAGAAUGGAUAUAGUGAUGUUAUGUAUACGAACGAAUCGCAGGUAGGUCGCCCGGAUCCCU [SSArgB.aC]	851
AAGGGCUAGGCGGCCGCCACUGGUUGUGAACACAUACGAGCCAGUGAUGUUGGUAUUGUGUGCGGCAGGACCGGGCCUAGCCGAA [Exclusion - Tryptophan B (Freestyle 23)]	300
AGACUACUGACAGGAUAUAACAUCCUGGUCGUAUACCGAAAGGUAUACGAUUUCCUUCUAGUGAUGUUAGAAGGGUCGGUAGUCA [Omei KL FMN B Exc B v14]	70.3
AAAGUGUCAGCACGAGUGAUGUUCGACGAUACCAGCCUCGAUAGAGGCCCUUGGCAGCGUAAACCAAGGGCUGGCACAAAAUAAA [#SwitchBubble 6 #K4Early]	439
GUAUAAAUAUAAGGAUAUGCAGGGAAAGUAAGAAUGGGUUAGUUGAACUUUAGUGAUGUUGAGGAAGCAGAAGGUGUAUAUGUGU [FMN B same state]	322

Sequence	apparent KD of K4 kissing-loop reporter [nM]
GGAUAGGACAGAGGAUAUCCUUGAGGCAAGAAACUUGUCUCUAAAAGGAUGAACCUAGUGAUGUUAGGAGAAGGCUGUCCUAUCG [FmnBX 13 - #SwitchBubble #StaticStem #Palindromic]	85
CCUUCUCUUGAUAGUGAUGUUAUCAAGGGCAAGGAUAUCAUCUCAAUGAGAAGGUGUCCUUGAUAACAUGGAGGUCUGAAACAGA [Omei KL FMN A Exc C v4]	159
AUUUAUGUAUCAGGAUAUUAGUGAUGUUUGUUUUUGUUAGUGAUGUUGAUAUUUGUUUUAUGUAUUUAAGAAGGGAUUGAGAUGU [wwewmullin]	24.2
AUGCUUAUAAUAACACUAUAUACAACUGAAGGAGCGACAAUAAAGUCAGGUAGGUCGCAGAAUAAAUGAGUGAUGUUCAUUUUUA [JR_ExcArginiA_Sub010]	144
AAGUGUGUGGCGGCCGCCACUAGAAUCCAGUGAUGUUGGAGAUAUCUCGUAAGAGAUAUCCGCCAUAGGACCGGGCCAUAUAGAA [Same State - Tryptophan B (Freestyle 15)]	413
UCGGACGCGCACCUAGGCCAAUCCACUGCGAAGGAUAUGCGCGCCAGCAGAAGGUCGUUUUAUGAGUGAUGUUUAGAAACAGCGU [theeternabot_exclusion_KL_FMN_A_25]	294
GGGAUGUAGUGAUGUUAUAUUAGAUGUAGACGAGGACCGGUACGGCCGCCACUCGUGAUGGCUGCUAGCACGUUUCGAUGUUUGC [ExTryptoA.Cr]	462
GUUACGCAUGGAAGGAGCGCACUCCGAUUGGACGACACAGUGAUGUUGUGGUUCGUUCGAAUGCAGGUAGGUCGCCAUGUGUAAC [Ex Arginine B K4 19]	134
CUCAAACCGUGGGCAUUUCGCAAAGUAGAUACCAGUCGCAACGGUGACCCUUGGCAGCUAGUAAAGUGAUGUUUUAUCGGCACCA [theeternabot_exclusion_KL_Theo_A_35]	78.6
AGCAUUAUCAGAAGGAGCGUGUAUAAUUCAAGAGAAUUGUUUUCGAGUGAUGUUCGUAAUACACAGGUAGGUCGCUGAUAUAGCA [JR_ExcArginiB_Sub001]	302
AAGGCCAGUGAUGUUGGCUUAACCUUCGAUACCAGAACCGAUCGUUUCCCUUGGCAGCGAACACAAUACCUCACAGCGUUAAGUA [theeternabot_sameState_KL_Theo_A_8]	149
GUACGCUGCUGAGUGAUGUUCAGCAAUCGCUAGGAUAUCGCUUUUGCGAGAAGGAGCGCAAUGAGGAAACUCGUUGUUAGUGUAC [FMN A 28]	204
UGGGUGUAGUGAUGUUAUAUAGAGAGUGAUACCAGUUUAGAGAGGAACCCUUGGCAGCAUAGAAGAGUAUCAUUGGAGGAGGAGG [ExTheophyl.Aw]	606
GCAGACCGCAGUGAUGUUGCGAAAUCGGAAGGAGCGCGUGAAAACGCAGGUAGGUCGCCGACACAGGGAUUAUAACCCUGUUUGC [Arginine A K4 16]	176
GAGCCAGAGGUUGCUGCGGGUUCCAGAGAUACCAGCCGUAUUGAAGGCCCUUGGCAGCUCGAGUGAUGUUCGAGCCGCCUCUGAC [Isquleorve]	108
